In US20030119023, “Nucleic acid binding polypeptides characterized by flexible linkers connected nucleic acid binding modules” (published 2003):

Columns and labels:
[1] = molecular target: TF(1-4)-ZIF (TFIIIA F1-4 fused to Zif268) (artificial); assay: EMSA; no preference for gap composition (data not shown); conditions: label: 32P
[2] = molecular target: ZIF-ZnF-GAC (serine-finger linker) (artificial); assay: EMSA; conditions: label: 32P
Procedure: (§1) DNA binding reactions contain the appropriate zinc-finger peptide, binding site and 1 μg competitor DNA (poly dI-dC) in a total volume of 10 μl, which contains: 20 mM Bis-tris propane (pH 7.0), 100 mM NaCl, 5 mM MgCl₂, 50 μM ZnCl₂, 5 mM DTT, 0.1 mg/ml BSA, 0.1% Nonidet P40. Incubations are performed at room temperature for 1 hour.
For this purpose a ‘neutral’ finger is created by replacing the DNA binding residues (those at positions −1, 2, 3, and 6) of wild type ZIF268 finger 2, with serine residues. Serine can act as either an H-bond acceptor or donator, and can therefore interact with all four bases in DNA. This new finger, denoted “ZnF” and flanked by two GERP linkers, is used to join the three-finger peptides of ZIF and the GAC-clone, creating the seven-finger array ZIF-ZnF-GAC (FIG. 17). This peptide is targeted against non-contiguous sites comprising the 9 bp ZIF and GAC-clone recognition sequences separated by 2, 3, 4 or 5 bps of DNA, and also sites bsA and bsC for comparison (FIG. 21).

3x2F ZGL = 3x2F ZGL (artificial); assay: EMSA; apparent Kd; conditions: label: 32P
Procedure: as §1
(§2) Dissociation constants are determined in parallel to the calculation of active peptide concentration. Serial 3, 4 or 5-fold dilutions of crude peptide are made and incubated with radiolabelled binding site (0.1 pM-500 pM depending on the peptide), as above. Samples are run on 7% native polyacrylamide gels and the radioactive signals quantitated by PhosphorImager analysis. The data is then analysed according to linear transformation of the binding equation and plotted in CA-Cricket Graph III (Computer Associates Inc. NY) to generate the apparent dissociation constants. The Kd values reported are the average of at least two separate studies.
(§3) First the 3x2F ZGS and ZGL peptides are titrated against 12/34/56 (three 6 bp subsites separated by 1 bp, which is represented by a single ‘/’ in the binding site name) and 12//34//56 (three 6 bp subsites separated by 2 bps) binding sites. […] Next, the 3x2F ZGSL and 3x2F ZGLS peptides are targeted against the three non-contiguous sequences: 1234/56, 12/3456 and 12//34//56. […] 3x2F ZGLS show a similar trend in binding affinities.

3x2F ZGLS = 3x2F ZGLS (artificial); assay: EMSA; apparent Kd; conditions: label: 32P
Procedure: as §1, §2, §3

3x2F ZGS [3] = molecular target: 3x2F ZGS (artificial); assay: EMSA; apparent Kd; conditions: label: 32P
Procedure: as §1, §2, §3

3x2F ZGSL = 3x2F ZGSL (artificial); assay: EMSA; apparent Kd; conditions: label: 32P
Procedure: as §1, §2, §3

[4] = molecular target: TF(1-4)-ZIF (TFIIIA F1-4 fused to Zif268) (artificial); assay: EMSA; apparent Kd; table prints gap as X9; conditions: label: 32P
Procedure: as §1, §2
(§4) The TF(1-4)-ZIF and TF(1-3)-flex-ZIF peptides are tested against the non-contiguous TF-5,6,7,8,9-Z sites. In these first experiments the DNA composition of the non-bound region is based on the endogenous TFIIIA target site. […] The target sites with 5, 6 or 9 bp gaps are bound at least 5-fold weaker (FIG. 27A). […]

3x2F ZGS [5] = molecular target: 3x2F ZGS (artificial); assay: EMSA; apparent Kd; conditions: label: 32P; remark: listed apart in the source
Procedure: as §1, §2

2x3F ZIF-GAC = 2x3F ZIF-GAC (artificial); assay: EMSA; apparent Kd; conditions: label: 32P
Procedure: as §1, §2

[6] = molecular target: TF(1-4)-ZIF (TFIIIA F1-4 fused to Zif268) (artificial); assay: EMSA; apparent Kd; table prints gap as X6; conditions: label: 32P
Procedure: as §1, §2, §4

GAC-F4-ZIF [7] = molecular target: GAC-F4-ZIF (artificial); assay: EMSA; 7 bp gap spanned without significant loss; conditions: label: 32P
[8] = molecular target: ZIF-ZnF-GAC (serine-finger linker) (artificial); assay: EMSA; apparent Kd; conditions: label: 32P
Procedure: as §1, §2
A further set of binding studies is then carried out on the construct containing the non-specific zinc finger linker, ZIF-ZnF-GAC. Although this construct is expected to target (primarily) non-contiguous sequences containing three or four base pairs of non-bound DNA, it is tested against all of the binding sites from ZM to Z10M. […]

3x2F ZGXL = 3x2F ZGXL (artificial); assay: EMSA; conditions: label: 32P
Procedure: as §1
3x2F ZGXL binds the non-contiguous site bsD approximately as tightly as the 3x2F ZGS peptide binds the contiguous 18 bp site, bsC. However, the 3x2F ZGXL peptide binds bsE (containing 2 base pair gaps between target subsites) approximately 500-fold less tightly than it does bsC and bsD, as shown in FIG. 11. This is presumably because it can only bind bsE through 2 fingers.

[9] = molecular target: Zif268 (wild-type ZIF, three-finger) (UniProt P08046 P08046:333-421); assay: EMSA; Bis-tris propane pH 7.0, 100 mM NaCl, 5 mM MgCl2, 50 uM ZnCl2, room temperature
GAC-F4-ZIF [10] = molecular target: GAC-F4-ZIF (artificial); assay: EMSA; 10 bp gap spanned without significant loss; conditions: label: 32P
[11] = molecular target: TF(1-4)-ZIF (TFIIIA F1-4 fused to Zif268) (artificial); assay: EMSA; apparent Kd; table prints gap as X7; conditions: label: 32P
Procedure: as §1, §2, §4

GAC-F4-ZIF [12] = molecular target: GAC-F4-ZIF (artificial); assay: EMSA; optimal 9 bp gap; conditions: label: 32P
Procedure: as §1
(§5) To determine whether TFIIIA F4 would still function as a linker when taken out of the context of neighbouring TFIIIA fingers, the GAC-F4-ZIF construct is made (FIGS. 14 and 16). This construct can be thought of simply as two ZIF-based DNA binding domains joined by a structured linker (in this case TFIIIA F4). […] In this case, however, the optimal DNA span is found to be 8 or 9 bps, although 7-11 bp stretches could be spanned without a significant loss in binding affinity.

[13] = molecular target: TF(1-4)-ZIF (TFIIIA F1-4 fused to Zif268) (artificial); assay: EMSA; apparent Kd; table prints gap as X8; conditions: label: 32P
Procedure: as §1, §2, §4

GAC-F4-ZIF [14] = molecular target: GAC-F4-ZIF (artificial); assay: EMSA; 11 bp gap spanned without significant loss; conditions: label: 32P
GAC-F4-ZIF [15] = molecular target: GAC-F4-ZIF (artificial); assay: EMSA; optimal 8 bp gap; conditions: label: 32P
Procedure: as §1, §5

[16] = molecular target: TF(1-4)-ZIF (TFIIIA F1-4 fused to Zif268) (artificial); assay: EMSA; apparent Kd; table prints gap as X5; conditions: label: 32P
Procedure: as §1, §2

Sequence of TF(1-4)-ZIF (TFIIIA F1-4 fused to Zif268) (artificial) (chain, as listed by the source): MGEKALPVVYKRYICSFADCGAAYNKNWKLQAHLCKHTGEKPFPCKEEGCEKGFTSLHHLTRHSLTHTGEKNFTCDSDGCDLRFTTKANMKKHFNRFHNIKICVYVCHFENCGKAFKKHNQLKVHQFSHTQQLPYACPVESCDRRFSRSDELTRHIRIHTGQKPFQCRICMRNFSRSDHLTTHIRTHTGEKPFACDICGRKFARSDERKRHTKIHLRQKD
Sequence of 3x2F ZGLS (artificial) (chain, as listed by the source): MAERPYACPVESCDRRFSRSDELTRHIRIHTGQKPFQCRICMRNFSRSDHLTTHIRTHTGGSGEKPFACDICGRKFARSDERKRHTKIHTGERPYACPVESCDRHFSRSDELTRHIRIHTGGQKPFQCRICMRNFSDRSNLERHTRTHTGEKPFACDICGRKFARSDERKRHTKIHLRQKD
Sequence of ZIF-ZnF-GAC (serine-finger linker) (artificial) (chain, as listed by the source): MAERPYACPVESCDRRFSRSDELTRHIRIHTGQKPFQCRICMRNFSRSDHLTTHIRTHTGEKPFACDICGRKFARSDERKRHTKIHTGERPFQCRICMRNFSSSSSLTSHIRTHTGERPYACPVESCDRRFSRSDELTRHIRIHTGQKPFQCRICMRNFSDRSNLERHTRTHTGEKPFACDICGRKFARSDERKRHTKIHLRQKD
Sequence of GAC-F4-ZIF (artificial) (chain, as listed by the source): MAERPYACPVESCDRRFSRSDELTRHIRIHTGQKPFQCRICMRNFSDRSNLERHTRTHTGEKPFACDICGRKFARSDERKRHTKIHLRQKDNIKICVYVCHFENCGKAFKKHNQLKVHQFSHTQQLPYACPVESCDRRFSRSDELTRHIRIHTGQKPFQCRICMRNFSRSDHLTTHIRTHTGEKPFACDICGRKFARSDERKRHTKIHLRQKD
Sequence of 3x2F ZGSL (artificial) (chain, as listed by the source): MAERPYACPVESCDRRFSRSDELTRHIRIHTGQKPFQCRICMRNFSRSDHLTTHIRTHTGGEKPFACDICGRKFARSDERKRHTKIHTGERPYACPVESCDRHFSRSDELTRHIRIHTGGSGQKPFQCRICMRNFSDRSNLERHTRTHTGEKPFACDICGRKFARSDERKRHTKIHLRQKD
Sequence of 2x3F ZIF-GAC (artificial) (chain, as listed by the source): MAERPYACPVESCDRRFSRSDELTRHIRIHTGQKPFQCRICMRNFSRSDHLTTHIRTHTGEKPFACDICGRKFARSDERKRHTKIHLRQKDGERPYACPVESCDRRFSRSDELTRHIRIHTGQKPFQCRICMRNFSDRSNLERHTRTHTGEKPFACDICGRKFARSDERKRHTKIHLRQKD
Sequence of 3x2F ZGS (artificial) (chain, as listed by the source): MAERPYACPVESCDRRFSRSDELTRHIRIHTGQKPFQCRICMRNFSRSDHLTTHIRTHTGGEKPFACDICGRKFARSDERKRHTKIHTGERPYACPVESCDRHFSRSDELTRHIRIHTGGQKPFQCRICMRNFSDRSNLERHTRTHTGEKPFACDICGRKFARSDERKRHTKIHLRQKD
Sequence of 3x2F ZGL (artificial) (chain, as listed by the source): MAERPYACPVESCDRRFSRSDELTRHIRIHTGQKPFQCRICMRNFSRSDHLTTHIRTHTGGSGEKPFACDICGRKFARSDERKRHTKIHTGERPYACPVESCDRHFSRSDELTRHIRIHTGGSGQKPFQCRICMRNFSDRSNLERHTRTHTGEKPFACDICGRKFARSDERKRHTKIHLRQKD
Sequence of 3x2F ZGXL (artificial) (chain, as listed by the source): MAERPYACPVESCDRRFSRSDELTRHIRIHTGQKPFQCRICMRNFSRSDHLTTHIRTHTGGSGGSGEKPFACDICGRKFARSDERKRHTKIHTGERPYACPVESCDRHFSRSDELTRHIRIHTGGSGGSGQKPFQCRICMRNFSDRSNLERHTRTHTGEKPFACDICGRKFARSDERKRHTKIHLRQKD

B1: bsH1 (dsDNA)
DNA 1: GCGTGGGCGAAAAAAGGATGGGAGAC
DNA 2: GTCTCCCATCCTTTTTTCGCCCACGC
[1]
  binding result: binds

B2: Z4G (dsDNA)
DNA 1: GCGGACGCGTAGTGCGTGGGCG
DNA 2: CGCCCACGCACTACGCGTCCGC
[2]
  binding signal: ≥ 500 fold stronger than bsA

B3: bsD (12/34/56) (dsDNA)
DNA 1: GCGGACTGCGGCGTTGGGCG
DNA 2: CGCCCAACGCCGCAGTCCGC
3x2F ZGL
  Kd: 0.005 nM
3x2F ZGLS
  Kd: 0.12 nM
3x2F ZGS [3]
  Kd: 18 nM
3x2F ZGSL
  Kd: 0.11 nM

B4: TF9Z (bsE1) (dsDNA)
DNA 1: GCGTGGGCGTTAGTACCTGGATGGGAGAC
DNA 2: GTCTCCCATCCAGGTACTAACGCCCACGC
[4]
  Kd: 0.015 nM

B5: bs2 (123/56) (dsDNA)
DNA 1: GCGGACTGCGTGGGCG
DNA 2: CGCCCACGCAGTCCGC
3x2F ZGS [5]
  Kd: 0.63 nM
2x3F ZIF-GAC
  Kd: 0.014 nM

B6: Z2G (dsDNA)
DNA 1: GCGGACGCGGTGCGTGGGCG
DNA 2: CGCCCACGCACCGCGTCCGC
[2]
  binding signal: ≥ 500 fold stronger than bsA

B7: TF6Z (bsB1) (dsDNA)
DNA 1: GCGTGGGCGGTACCTGGATGGGAGAC
DNA 2: GTCTCCCATCCAGGTACCGCCCACGC
[6]
  Kd: 0.017 nM

B8: Z3G (dsDNA)
DNA 1: GCGGACGCGAGTGCGTGGGCG
DNA 2: CGCCCACGCACTCGCGTCCGC
[2]
  binding signal: ≥ 500 fold stronger than bsA

B9: bsB2 (dsDNA)
DNA 1: GCGTGGGCGGTACCTGGCGGACGCG
DNA 2: CGCGTCCGCCAGGTACCGCCCACGC
GAC-F4-ZIF [7]
  binding result: binds

B10: bs4 (123///56) (dsDNA)
DNA 1: GCGGACATCGCGTGGGCG
DNA 2: CGCCCACGCGATGTCCGC
3x2F ZGS [5]
  Kd: 0.89 nM
2x3F ZIF-GAC
  Kd: 0.015 nM

B11: bsE (12//34//56) (dsDNA)
DNA 1: GCGGAGTCGCGGCGTCTGGGCG
DNA 2: CGCCCAGACGCCGCGACTCCGC
3x2F ZGL
  Kd: 11 nM
3x2F ZGLS
  Kd: 12 nM
3x2F ZGSL
  Kd: 12 nM

B12: bsC (123456, ZM) (dsDNA)
DNA 1: GCGGACGCGGCGTGGGCG
DNA 2: CGCCCACGCCGCGTCCGC
2x3F ZIF-GAC
  Kd: 0.0014 nM
[8]
  Kd: 0.007 nM
3x2F ZGXL
  binding result: binds

B13: bsA (ZIF site) (dsDNA)
DNA 1: GCGTGGGCG
DNA 2: CGCCCACGC
[9]
  Kd: 0.45 nM

B14: bsE2 (dsDNA)
DNA 1: GCGTGGGCGTTAGTACCTGGCGGACGCG
DNA 2: CGCGTCCGCCAGGTACTAACGCCCACGC
GAC-F4-ZIF [10]
  binding result: binds

B15: TF7Z (bsC1) (dsDNA)
DNA 1: GCGTGGGCGAGTACCTGGATGGGAGAC
DNA 2: GTCTCCCATCCAGGTACTCGCCCACGC
[11]
  Kd: 0.003 nM

B16: bsG1 (dsDNA)
DNA 1: GCGTGGGCGCTTGACGGATGGGAGAC
DNA 2: GTCTCCCATCCGTCAAGCGCCCACGC
[1]
  binding result: binds

B17: Z5G (dsDNA)
DNA 1: GCGGACGCGCTAGTGCGTGGGCG
DNA 2: CGCCCACGCACTAGCGCGTCCGC
[2]
  binding signal: ≥ 500 fold stronger than bsA

B18: bsF (1234/56 in Table 5) (dsDNA)
DNA 1: GCGGACTGCGGCGTGGGCG
DNA 2: CGCCCACGCCGCAGTCCGC
3x2F ZGLS
  Kd: 0.089 nM
3x2F ZGS [3]
  Kd: 0.054 nM
3x2F ZGSL
  Kd: 0.003 nM

B19: bs3 (123//56) (dsDNA)
DNA 1: GCGGACTCGCGTGGGCG
DNA 2: CGCCCACGCGAGTCCGC
3x2F ZGS [5]
  Kd: 0.27 nM
2x3F ZIF-GAC
  Kd: 0.014 nM

B20: bs1 (12356) (dsDNA)
DNA 1: GCGGACGCGTGGGCG
DNA 2: CGCCCACGCGTCCGC
3x2F ZGS [5]
  Kd: 22 nM
2x3F ZIF-GAC
  Kd: 0.36 nM

B21: bsD2 (dsDNA)
DNA 1: GCGTGGGCGTAGTACCTGGCGGACGCG
DNA 2: CGCGTCCGCCAGGTACTACGCCCACGC
GAC-F4-ZIF [12]
  binding signal: ≥ 125 fold stronger than bsA

B22: TF8Z (bsD1) (dsDNA)
DNA 1: GCGTGGGCGTAGTACCTGGATGGGAGAC
DNA 2: GTCTCCCATCCAGGTACTACGCCCACGC
[13]
  Kd: 0.003 nM

B23: bsF2 (dsDNA)
DNA 1: GCGTGGGCGGTTAGTACCTGGCGGACGCG
DNA 2: CGCGTCCGCCAGGTACTAACCGCCCACGC
GAC-F4-ZIF [14]
  binding result: binds

B24: bsG (12/3456 in Table 5) (dsDNA)
DNA 1: GCGGACGCGGCGTTGGGCG
DNA 2: CGCCCAACGCCGCGTCCGC
3x2F ZGLS
  Kd: 0.005 nM
3x2F ZGS [3]
  Kd: 0.077 nM
3x2F ZGSL
  Kd: 0.073 nM

B25: bsC2 (dsDNA)
DNA 1: GCGTGGGCGAGTACCTGGCGGACGCG
DNA 2: CGCGTCCGCCAGGTACTCGCCCACGC
GAC-F4-ZIF [15]
  binding signal: ≥ 125 fold stronger than bsA

B26: TF5Z (bsA1) (dsDNA)
DNA 1: GCGTGGGCGTACCTGGATGGGAGAC
DNA 2: GTCTCCCATCCAGGTACGCCCACGC
[16]
  Kd: 0.021 nM
